This is an account of results in US11529424B2, “Synthetic bioconjugates” (Symic Holdings, Inc., priority 2017, dated 2022).

The target in one data set is Collagen Type I (Homo sapiens, UniProt P02452+P08123). Description: Collagen Binding Assay 2. The conditions noted are these: with GSGSGSRR spacer versus binding domain without spacer and spacer alone, FIG. 18 and 19. The procedure:
GQLYKSILYGSGSGSRR (SEQ ID NO: 6) (Compound 10) was evaluated for binding affinity against the GQLYKSILYGSG (SEQ ID NO: 59) (Peptide X) binding domain without spacer and against the spacer sequence alone, GSGSGSRR (SEQ ID NO: 4) (Spacer A), results shown in FIG. 18. […] WREPSFSALS (SEQ ID NO: 8), also known as vWF-2× due to its binding to the von Willebran binding site on collagen, was evaluated for binding affinity with and without the GSGSGSRR (SEQ ID NO: 4) spacer.
50 μg/ml of Collagen Type I was adsorbed onto high bind plates by incubating overnight. Plates were then washed with PBS and blocked using 1% Non-fat milk in PBS for 1 hour. Molecule dilutions were prepared in 1% BSA in PBS and then incubated for 1 hour at 25° C. Plates were then washed with PBS containing 0.05% Tween 20. A 1:500 dilution of Streptavidin-HRP in 1% BSA PBS was prepared and added to the plates for 20 minutes. Plates were then washed with PBS and TMB solution was added for 10 minutes for color development. The color development was stopped using 0.16 M sulfuric acid and absorbance at […] was measured using a plate reader. Compound 10 was used as a reference standard for all EC50 results.

The subject of data set [1] is platelet binding to Type I fibrillar collagen. Description: Platelet aggregation: platelet binding to collagen under flow. The conditions noted are these: 2 mg/mL on collagen-coated slides, human whole blood, sheer rate 1000 s−1, 10 minutes; compared to Compound 1. Type of data set: cell-based. The protocol:
Type I fibrillar collagen was adsorbed to Ibidi μ-slides by overnight incubation at 2-8° C. The Ibidi μ-slides were rinsed with Phosphate Buffer Saline (PBS), and then blocked with 1% BSA in 1×PBS. Compound 10 (shown in FIG. 12B) and Compound 1 at 2 mg/mL (shown in 12A) were applied to Ibidi μ-slides and left to incubate. After 1 hour excess conjugates were rinsed away with 1×PBS. Freshly drawn human whole blood was prestained with Calcein AM (Live Fluorescent cell marker). Blood was pumped across the channels at a sheer rate of 1000 s−1 using a syringe pump for 10 minutes. As blood flows across the Ibidi μ-Slides, Fluorescent microscope was used to take images of aggregated fluorescently labeled platelets.

The target in a further data set is collagen. Description: Collagen-binding plate assay. The note with it: for collagen binding EC50: compared to the EC50 for Compound 4. The procedure:
The following method is used to assess the binding affinity of bioconjugates disclosed herein for collagen.
Collagen-binding of bioconjugate variants is compared by a plate-assay, in which collagen is coated on 96-well plates. Collagen is coated on high-bind plates at 50 μg/mL in 0.02 N acetic acid for 1 hour at room temperature. Unbound collagen is rinsed with 1×PBS pH 7.4. Plates are then blocked in 1% milk in 1×PBS solution for 1 hour at room temperature.
Bioconjugate variants containing biotinlyated peptides are dissolved to a final concentration of 1 mg/mL in 1% milk in 1×PBS pH 7.4. From this solution, a 10× serial dilution is performed. Molecules are then incubated on the blocked collagen-coated plates and incubated for 15 minutes at room temperature. Plates are then rinsed 3 times with 1×PBS in 1% BSA and 0.2% Tween20.
Bound molecules are detected by streptavidin-HRP, which was diluted 1:500 in 1× PBS with 1% BSA and 0.2% Tween20 and incubated 200 μL/well for 20 minutes at room temperature. Streptavidin solution is rinsed from the plates 3 times with 1×PBS with 0.2% Tween20. TMB Substrate solution is then added to each well 100 μL/well for 15 minutes at room temperature, and the color evolution was stopped with 100 μL sulfuric acid solution (0.16 M). Absorbance in the well is then measured at 450 nm and binding affinity plotted in a dose-response by absorbance vs. concentration.
This method was used to compare collagen binding affinity of various collagen-binding bioconjugates by comparing EC50 values. More specifically, the EC50 values for each bioconjugate was compared to the EC50 for Compound 4.

The test system of data set [2] is mouse model of Non-Alcoholic Steatohepatitis (NASH). Description: Non-Alcoholic Steatohepatitis (NASH) mouse model, liver collagen by Sirius Red. Type of data set: in vivo, C57BL/6 mice. The note with it: week 5 to week 9; Compound 10 3×/week intravenous, Telmisartan daily oral; compared to the vehicle treated group. The protocol:
The ability of the compounds to affect liver fibrosis was tested in a mouse model of Non-Alcoholic Steatohepatitis (NASH). C57BL/6 mice received a single subcutaneous injection of 200 μg streptozotocin after birth. Beginning at 4 weeks of age, animals were fed a high fat diet. […] A separate group of animals received daily oral administration of Telmisartan during the same period Animals were sacrificed at 9 weeks of age and the livers were collected for histological and biochemical analysis. Histological analysis of the livers for collagen content was performed using Sirius Red staining.

The target of data set [3] is collagen (coated on 96-well plates, Example 2). Description: collagen-coated 96-well plate, biotin-labelled bioconjugate, streptavidin-HRP/TMB, absorbance at 450 nm (Example 2).
Data set [4] has the same target. Description: collagen-coated 96-well plate, biotin-labelled bioconjugate, streptavidin-HRP/TMB, absorbance at 450 nm (Example 2); Kd unit inferred, the concentration axis is in ug/ml.
For data set [5] the target is unchanged. Description: collagen-coated 96-well plate, biotin-labelled bioconjugate, streptavidin-HRP/TMB, absorbance at 450 nm (Example 2). This is another data set of the same source.
For data set [6] the target is unchanged. Description: collagen-coated 96-well plate, biotin-labelled bioconjugate, streptavidin-HRP/TMB, absorbance at 450 nm (Example 2), the concentration axis is in ug/ml.

“And” between values parts separate entries of the source, which are not always exact repeats. Identical values can stand only once. “Also recorded” adds a separate entry of the source. Like-named read-outs stand apart in the source and are kept apart here. Ends that are not written are not given here. * marks the point of attachment. NHNH2 = NN*

Collagen Type I, sequence (P02452 162-1218 limits assumed): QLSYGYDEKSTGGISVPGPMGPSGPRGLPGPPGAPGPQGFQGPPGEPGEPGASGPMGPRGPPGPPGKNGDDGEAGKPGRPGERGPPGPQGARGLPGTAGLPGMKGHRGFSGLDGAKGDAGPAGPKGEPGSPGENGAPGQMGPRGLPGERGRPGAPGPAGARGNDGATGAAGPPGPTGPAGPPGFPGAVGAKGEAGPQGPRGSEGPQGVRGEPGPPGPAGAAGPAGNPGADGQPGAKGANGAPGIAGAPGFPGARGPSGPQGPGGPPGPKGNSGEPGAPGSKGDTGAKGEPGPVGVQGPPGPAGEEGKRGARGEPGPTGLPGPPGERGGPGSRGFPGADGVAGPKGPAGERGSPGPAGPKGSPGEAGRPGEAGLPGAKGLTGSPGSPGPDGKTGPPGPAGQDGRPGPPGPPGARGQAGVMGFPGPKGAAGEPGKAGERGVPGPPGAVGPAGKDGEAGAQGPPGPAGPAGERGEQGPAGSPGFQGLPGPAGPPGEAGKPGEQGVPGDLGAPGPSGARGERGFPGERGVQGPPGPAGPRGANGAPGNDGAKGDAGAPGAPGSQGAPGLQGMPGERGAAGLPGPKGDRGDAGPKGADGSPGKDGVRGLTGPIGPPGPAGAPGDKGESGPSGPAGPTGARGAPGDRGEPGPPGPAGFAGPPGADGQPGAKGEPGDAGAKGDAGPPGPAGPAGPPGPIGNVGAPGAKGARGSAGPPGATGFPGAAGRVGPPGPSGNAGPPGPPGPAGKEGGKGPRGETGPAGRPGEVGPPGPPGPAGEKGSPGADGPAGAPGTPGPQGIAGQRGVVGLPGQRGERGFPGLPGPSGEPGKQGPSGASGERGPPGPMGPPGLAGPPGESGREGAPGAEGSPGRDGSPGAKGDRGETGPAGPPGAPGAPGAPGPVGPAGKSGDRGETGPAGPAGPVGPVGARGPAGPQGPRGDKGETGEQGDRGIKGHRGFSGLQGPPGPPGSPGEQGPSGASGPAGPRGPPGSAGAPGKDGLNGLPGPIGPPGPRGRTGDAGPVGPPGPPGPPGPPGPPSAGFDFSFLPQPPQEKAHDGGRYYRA
Collagen Type I, sequence (P08123 80-1119 limits assumed): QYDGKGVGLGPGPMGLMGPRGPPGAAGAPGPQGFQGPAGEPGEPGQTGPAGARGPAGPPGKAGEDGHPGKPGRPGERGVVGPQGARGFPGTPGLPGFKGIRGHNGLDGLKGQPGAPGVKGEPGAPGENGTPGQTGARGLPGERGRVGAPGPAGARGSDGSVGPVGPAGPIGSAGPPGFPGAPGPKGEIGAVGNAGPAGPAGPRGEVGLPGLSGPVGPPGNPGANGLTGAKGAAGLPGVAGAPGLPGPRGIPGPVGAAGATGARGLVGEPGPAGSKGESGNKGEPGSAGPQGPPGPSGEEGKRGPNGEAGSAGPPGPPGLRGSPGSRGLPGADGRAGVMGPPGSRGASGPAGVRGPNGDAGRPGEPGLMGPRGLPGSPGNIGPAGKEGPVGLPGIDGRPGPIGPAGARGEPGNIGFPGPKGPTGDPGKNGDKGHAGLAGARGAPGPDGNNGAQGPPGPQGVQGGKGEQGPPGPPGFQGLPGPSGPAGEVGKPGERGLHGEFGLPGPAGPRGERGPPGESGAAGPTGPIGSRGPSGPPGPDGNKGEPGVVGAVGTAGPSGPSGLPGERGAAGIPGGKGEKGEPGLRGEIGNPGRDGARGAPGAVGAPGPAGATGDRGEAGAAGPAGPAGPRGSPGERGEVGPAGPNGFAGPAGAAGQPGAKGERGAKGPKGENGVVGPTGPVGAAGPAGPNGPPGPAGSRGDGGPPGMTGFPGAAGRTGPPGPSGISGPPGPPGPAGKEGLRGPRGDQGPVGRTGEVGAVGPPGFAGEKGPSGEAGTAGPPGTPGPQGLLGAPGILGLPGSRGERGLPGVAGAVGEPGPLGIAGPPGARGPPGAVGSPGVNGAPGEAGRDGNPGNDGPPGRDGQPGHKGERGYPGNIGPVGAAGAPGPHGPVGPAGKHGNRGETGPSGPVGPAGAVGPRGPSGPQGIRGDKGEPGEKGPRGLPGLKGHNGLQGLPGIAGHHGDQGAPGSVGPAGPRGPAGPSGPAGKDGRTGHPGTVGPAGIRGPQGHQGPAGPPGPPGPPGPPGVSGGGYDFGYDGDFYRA

Take “Compound 10: heparin bioconjugate with peptide GQLYKSILYGSGSGSRR-NHNH2 (Peptide 10), 1:8 glycan to peptide (also: heparin bioconjugate, 1:8 glycan to peptide, attachment site not given here)”: the collagen binding affinity result with Collagen Type I was “greater binding affinity than the binding domain or the spacer in isolation”. Also, the “platelet binding to Type I fibrillar collagen” value in data set [1] is “inhibits platelet binding to Type I fibrillar collagen”. The “collagen binding EC50” value on collagen is listed as “decreases the EC50”. Further, the “levels of collagen in the liver (Sirius Red staining)” value in data set [2] is recorded as “decreased levels of collagen in the liver”.

As to “Compound 8: heparin bioconjugate with peptide GQLYKSILYGSRGSG-NHNH2 (Peptide 8), 1:8 glycan to peptide (also: heparin bioconjugate, 1:8 glycan to peptide, attachment site not given here)”, the “collagen binding EC50” value on collagen is “increases EC50; also recorded: slightly increases EC50”.

In the case of `CCCc1nc2c(C)cc(-c3nc4ccccc4n3C)cc2n1Cc1ccc(-c2ccccc2C(=O)O)cc1` [Telmisartan, reference compound], the “levels of collagen in the liver (Sirius Red staining)” value in data set [2] was “decreased levels of collagen in the liver”.

For the molecule “WREPSFSALSGSGSGSRR [WREPSFSALSGSGSGSRR (SEQ ID NO: 110)]”, the collagen binding affinity result in the data set with Collagen Type I is “increase in binding affinity”. With “Compound 4: heparin bioconjugate with peptide GQLYKSILYGSGRRGSG-NHNH2 (Peptide 4), 1:8 glycan to peptide (also: heparin bioconjugate, 1:8 glycan to peptide, attachment site not given here)”, the “collagen binding affinity (Kd)” value at collagen (compared to Compound 5 and Compound 3, FIG. 11) is “significant increase in collagen binding affinity (lower Kd)”.

B1: Compound 9 (heparin bioconjugate of …-NHNH2) (peptide)
peptide: GQLYKSILYRRGSGSGS
modifications: not fully specified; C-terminal hydrazide (-NHNH-) bonded to a carboxyl of heparin; part of the peptides biotin-labelled
As to B1, in data set [3], the EC50 (read off the curve) turned out to be 50 µg/mL.

B2: Compound 5 (heparin bioconjugate of …-NHNH2) (peptide)
peptide: GQLYKSILYGSGSGSGS
modifications: not fully specified; C-terminal hydrazide (-NHNH-) bonded to a carboxyl of heparin; part of the peptides biotin-labelled
B2: in data set [4], the dissociation constant (Kd) was 103 µg/mL and 113 µg/mL.

B3: Compound 4 (heparin bioconjugate of …-NHNH2) (peptide)
peptide: GQLYKSILYGSGRRGSG
modifications: not fully specified; C-terminal hydrazide (-NHNH-) bonded to a carboxyl of heparin; part of the peptides biotin-labelled
As to B3, the EC50 (read off the curve) was 40 µg/mL in data set [5] and 50 µg/mL in data set [3]. The Kd in data set [4] was 42.5 µg/mL. For the same molecule, the EC50 in data set [6] is 40.4 µg/mL and 32.1 µg/mL.

B4: Compound 3 (heparin bioconjugate of …-NHNH2) (peptide)
peptide: GQLYKSILYGSG
modifications: not fully specified; C-terminal hydrazide (-NHNH-) bonded to a carboxyl of heparin; part of the peptides biotin-labelled
In turn, B4 gave a Kd in data set [4] of 112 µg/mL.

B5: Compound 12 (heparin bioconjugate of …-NHNH2) (peptide)
peptide: GQLYKSILYGSGRRRGSG
modifications: not fully specified; C-terminal hydrazide (-NHNH-) bonded to a carboxyl of heparin; part of the peptides biotin-labelled
For the molecule B5, in data set [3], the EC50 (read off the curve) amounted to 30 µg/mL.

B6: Compound 6 (peptide)
peptide conjugated to heparin: GQLYKSILYGSRGRGSG
modifications: not fully specified; C-terminal hydrazide (-NHNH2) coupled to heparin; part of the peptides biotin-labelled
In the case of B6, in data set [6], the EC50 was 63.3 µg/mL.

Regarding GQLYKSILYGSGKKGSG (also: conjugated to heparin) [Compound 14 (heparin bioconjugate of …)], the EC50 (read off the curve) in data set [3] was 60 µg/mL.

B7: Compound 13 (heparin bioconjugate of …-NHNH2) (peptide)
peptide: GQLYKSILYGSGRGSGSGSG
modifications: not fully specified (C-terminus); printed as GQLYKSILYGSGRGSGSGSG-; also: about 5 peptides per heparin (16 kDa), part of the peptides biotin-labelled
For the molecule B7, the EC50 (read off the curve) in data set [3] is 60 µg/mL.

B8: Compound 20 (peptide)
peptide conjugated to heparin: GSGGQLYKSILY
modifications: not fully specified (N-terminus); also: part of the peptides biotin-labelled, heparin backbone average 16 kDa
Consider B8, for which, in data set [4], the Kd was 35.1 µg/mL.

B9: Compound 7 (peptide)
peptide conjugated to heparin: GQLYKSILYGRSGRGSG
modifications: not fully specified; C-terminal hydrazide (-NHNH2) coupled to heparin; part of the peptides biotin-labelled
Molecule B9 came in with an EC50 in data set [6] of 44.2 µg/mL.

B10: Compound 19 (heparin bioconjugate of (…)2-KRRGSG-NHNH2) (peptide)
peptide 1: RVMHGLHLGDDEGSG
peptide 2: KRRGSG
modifications: not fully specified (C-terminus); printed as (RVMHGLHLGDDEGSG)2-KRRGS; also: two copies of chain 1 bonded to the N-terminal branching lysine of chain 2, about 3 branched peptides per heparin (16 kDa)
Molecule B10 had an EC50 (read off the curve) in data set [3] of 100 µg/mL.

B11: Compound 10 (heparin bioconjugate of …-NHNH2) (peptide)
peptide: GQLYKSILYGSGSGSRR
modifications: not fully specified; C-terminal hydrazide (-NHNH-) bonded to a carboxyl of heparin; part of the peptides biotin-labelled
As to B11, in data set [3], the EC50 (read off the curve) was 20 µg/mL. In data set [6], this molecule yielded an EC50 of 15 µg/mL.

B12: Compound 11 (heparin bioconjugate of …-NHNH2) (peptide)
peptide: GQLYKSILYGSRRGS
modifications: not fully specified; C-terminal hydrazide (-NHNH-) bonded to a carboxyl of heparin; part of the peptides biotin-labelled
For the molecule B12, in data set [5], the EC50 (read off the curve) was found to be 50 µg/mL.

B13: Compound 8 (heparin bioconjugate of …-NHNH2) (peptide)
peptide: GQLYKSILYGSRGSG
modifications: not fully specified; C-terminal hydrazide (-NHNH-) bonded to a carboxyl of heparin; part of the peptides biotin-labelled
Molecule B13 had an EC50 (read off the curve) in data set [5] of 60 µg/mL. This molecule returned an EC50 in data set [6] of 47.1 µg/mL.
